The record followed here is patent US6512102.

GSK3 (huGSK3myc), P49841, sequence (P49841 whole entry, looked up): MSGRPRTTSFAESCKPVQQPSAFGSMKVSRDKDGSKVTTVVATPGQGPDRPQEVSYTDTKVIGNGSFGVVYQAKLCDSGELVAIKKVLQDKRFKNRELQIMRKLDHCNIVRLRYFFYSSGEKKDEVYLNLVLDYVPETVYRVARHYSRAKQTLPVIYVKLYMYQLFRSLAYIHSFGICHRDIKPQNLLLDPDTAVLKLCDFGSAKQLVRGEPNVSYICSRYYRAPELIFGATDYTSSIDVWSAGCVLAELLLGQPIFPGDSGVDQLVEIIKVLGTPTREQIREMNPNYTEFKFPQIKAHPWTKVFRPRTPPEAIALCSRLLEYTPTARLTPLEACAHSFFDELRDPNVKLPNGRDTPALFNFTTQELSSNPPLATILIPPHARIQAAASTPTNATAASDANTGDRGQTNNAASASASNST
β-catenin, sequence (P35222 2-781): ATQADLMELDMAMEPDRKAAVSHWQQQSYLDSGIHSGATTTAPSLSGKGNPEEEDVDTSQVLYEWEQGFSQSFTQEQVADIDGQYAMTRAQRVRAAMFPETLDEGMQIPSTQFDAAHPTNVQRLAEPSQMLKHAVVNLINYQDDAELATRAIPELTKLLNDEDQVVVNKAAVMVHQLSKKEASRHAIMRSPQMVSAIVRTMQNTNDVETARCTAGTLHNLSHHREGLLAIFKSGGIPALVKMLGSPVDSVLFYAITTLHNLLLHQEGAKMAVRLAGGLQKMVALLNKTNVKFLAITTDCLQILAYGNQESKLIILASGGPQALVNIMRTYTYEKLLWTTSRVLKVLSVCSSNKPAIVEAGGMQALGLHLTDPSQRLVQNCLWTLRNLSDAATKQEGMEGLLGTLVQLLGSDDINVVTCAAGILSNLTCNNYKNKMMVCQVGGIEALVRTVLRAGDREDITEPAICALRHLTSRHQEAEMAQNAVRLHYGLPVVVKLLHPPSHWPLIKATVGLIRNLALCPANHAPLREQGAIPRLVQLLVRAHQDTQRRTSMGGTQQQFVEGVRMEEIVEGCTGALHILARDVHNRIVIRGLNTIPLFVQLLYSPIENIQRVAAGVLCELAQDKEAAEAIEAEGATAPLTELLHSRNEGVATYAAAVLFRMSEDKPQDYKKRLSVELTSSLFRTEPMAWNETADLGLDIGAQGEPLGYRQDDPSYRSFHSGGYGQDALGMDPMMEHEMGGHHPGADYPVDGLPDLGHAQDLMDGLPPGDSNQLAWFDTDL

B1: mouse casein kinase I epsilon, HA-tagged (CKIε-HA) (protein)
chain: MELRVGNKYRLGRKIGSGSFGDIYLGANIASGEEVAIKLECVKTKHPQLHIESKFYKMMQGGVGIPSIKWCGAEGDYNVMVMELLGPSLEDLFNFCSRKFSLKTVLLLADQMISRIEYIHSKNFIHRDVKPDNFLMGLGKKGNLVYIIDFGLAKKYRDARTHQHIPYRENKNLTGTARYASINTHLGIEQSRRDDLESLGYVLMYFNLGSLPWQGLKAATKRQKYERISEKKMSTPIEVLCKGYPSEFSTYLNFCRSLRFDDKPDYSYLRQLFRNLFHRQGFSYDYVFDWNMLKFGAARNPEDVDRERREHEREERMGQLRGSATRALPPGPPTGATANRLRSAAEPVASTPASRIQQTGNTSPRAISRADRERKVSMRLHRGAPANVSSSDLTGRQEVSRLAASQTSVPFDHLGK
Regarding B1, the phosphorylation result in the data set with Axin is on record as “CKIε phosphorylates Axin”. Also, the “in vitro kinase assay (phosphorylation of GSK3)” value with GSK3 (huGSK3myc), P49841 was “either purified CKIε protein or immunoprecipitated CKIε phosphorylated purified GSK3 protein as well as immunoprecipitated GSK3 protein”. In addition, in the data set with β-catenin, the in vitro phosphorylation entry is “CKIε phosphorylates β-catenin in vitro”.

B2: C-terminally truncated CKIε (protein)
chain: MELRVGNKYRLGRKIGSGSFGDIYLGANIASGEEVAIKLECVKTKHPQLHIESKFYKMMQGGVGIPSIKWCGAEGDYNVMVMELLGPSLEDLFNFCSRKFSLKTVLLLADQMISRIEYIHSKNFIHRDVKPDNFLMGLGKKGNLVYIIDFGLAKKYRDARTHQHIPYRENKNLTGTARYASINTHLGIEQSRRDDLESLGYVLMYFNLGSLPWQGLKAATKRQKYERISEKKMSTPIEVLCKGYPSEFSTYLNFCRSLRFDDKPDYSYLRQLFRNLFHRQGFSYDYVFDWNMLKFGAARNPED
With B2, in the data set with GSK3 (huGSK3myc), P49841, the “in vitro kinase assay (phosphorylation of GSK3)” value was “A truncated mutant, CKIε, where the C-terminus was deleted had intact kinase activity. It was immunoprecipitated using anti-HA antibody and mixed with Immunoprecipitated GSK3”.
